pKd: −log10 of the molar value.
Columns and labels:
[1] = target: glycoprotein on Barrett's esophagus derived CP-D (CP-18821) cells; test: cell edge tracking (mechanical deformation) by phase contrast microscopy on fixed CP-D cells, 5 ug/ml WGA, first order kinetics fit
[2] = target: glycoprotein on Barrett's esophagus derived CP-D (CP-18821) cells; test: cell edge tracking (mechanical deformation) by phase contrast microscopy on fixed CP-D cells, 20 ug/ml WGA, first order kinetics fit
[3] = target: SHEP1 cell (surface binding partners of WGA not named); test: z-modulation FFT microscopy on a fixed SHEP1 cell, 10, 20 and 50 µg/ml WGA, first order kinetic model fit

pKd [1]: 7.85
koff [1]: 0.00156 s⁻¹
kon [1]: 109000 M⁻¹ s⁻¹
pKd [2]: 7.68
koff [2]: 0.0029 s⁻¹
kon [2]: 140000 M⁻¹ s⁻¹
pKd [3]: 6.90
koff [3]: 0.013 s⁻¹
kon [3]: 14000 M⁻¹ s⁻¹
Substance: Wheat germ agglutinin (WGA) (from UniProt P10968 27-197)
